Changes are numbered by the printed parent chain.

Test [1] concerns STn on bovine submaxillary mucin (BSM). As to the kind of experiment: Anti-STn BSM ELISA, non-treated and periodate-treated wells. The following applies: BSM ELISA without and after periodate treatment. The test is classed as binding. The procedure: Anti-STn serum titer is determined using a murine anti-STn bovine submaxillary mucin (BSM) ELISA together with serum profiles observed by glycan microarray. 96-well plates are coated with 1 μg/well of BSM and incubated overnight at 4° C. O-acetylation of BSM antigen is removed by treating wells with 0.1 M sodium hydroxide. Specific binding to STn is determined by treatment of wells with sodium periodate. Periodate treatment destroys the […] side chain of sialic acid; therefore antibodies raised against STn should not bind to periodate-treated wells. Wells are blocked with PBS 1% ovalbumin (OVA). Serum samples to be assayed are serially diluted in PBS 1% OVA. A commercially available mouse anti-STn monoclonal antibody, 3F1 (SBH Sciences, Natick, Mass.) is used as a positive control. This antibody is also serially diluted in PBS with 1% OVA. A pool of serum from naïve wild type mice is used for the preparation of negative control samples. Detection of anti-STn antibodies present in serum is determined using an HRP-conjugated polyclonal goat anti-mouse IgG antibody (Jackson Immunoresearch, West Grove, Pa.). The reaction is stopped by addition of sulfuric acid (1.6 M). Optical densities are measured at 490 nm using a Spectramax microplate reader (Molecular Devices, Sunnyvale, Calif.). The serum titer is obtained by comparison of OD values with a cutoff value calculated as two standard deviations above the mean of optical density values of the negative control. Sample tests are considered positive if the mean optical density value is greater than the cutoff value.
Binding affinities of 18D2 and 18C7 to STn were compared to commercially available anti-STn antibodies using the BSM ELISA assay described in Example 2. Commercial anti-STn antibodies used for comparison included 3F1 (SBH Sciences, Natick, Mass.,) TAG-72 clone B72.3 (Thermo Fisher Scientific, Waltham, Mass.,) TAG-72 clone CC49 (Santa Cruz Biotechnology, Santa Cruz, Calif.) as well as a negative control antibody against c-myc (Thermo Fisher Scientific, Waltham, Mass.). Each antibody was titrated using a 7-point, 1:5 serial dilution starting from 100 nM. Titrated antibodies were added to BSM ELISA plates containing wells that were non-treated or treated with sodium periodate. Antibody binding was determined using HRP-conjugated polyclonal goat anti-mouse IgG antibody (Jackson Immunoresearch Laboratories, West Grove, Pa.). The reaction was developed using an HRP substrate and stopped with 1.6 M sulfuric acid. Optical densities were measured at 490 nm using a Spectramax microplate reader. […] The half maximal effective concentration (EC50) for each antibody was calculated using a non-linear regression analysis carried out on periodate subtracted data.

Another test deals with MDA-MD-231 STn cells. The test is described as follows: Antibody internalization by fluorescence microscopy cell counts, STn+ cells. It is filed as cell-based, human. The following applies: for Net cell counts of cells showing positive internalization: 10 μg/ml antibody. The procedure:
6-well culture dishes were prepared with collagen-coated coverslips in the center of 4 wells of each dish. Wells were seeded with either 10^5 cells/well of MDA-MD-231 cells or with 10^6 cells/well of MDA-MD-231 STn cells (expressing STn) and cultured for 24 hours.
10 μg/ml antibody solutions were prepared in cell culture media. A separate solution was prepared for each of LA22 antibody (EMD Millipore, Burlington, Mass.) as a positive control for cell surface binding, S3F antibody (internal reagent) as a positive control for STn binding, 8C11, 2D4, 7G9, 10A5 and GB26.16 (QED Bioscience, San Diego, Calif.) as a negative control. Media were removed from wells and 100 μl of each antibody solution was added to separate coverslips. Coverslips were covered with parafilm and incubated for 30 minutes at 4° C. to allow antibody binding. Antibody solutions were removed by washing and fresh media was added to each well. Cells were incubated at 37° C. for 15, 30, 60 or 240 min to allow for antibody internalization.
After incubation, cells were prepared for microscopy. Cells were washed with PBS and fixed with paraformaldehyde fixation buffer (PFA) containing 3% paraformaldehyde and 2% sucrose in PBS for 15 minutes at room temperature. Cells were rinsed again in PBS and treated with blocking buffer made up of PBS with 1% bovine serum albumin (BSA) or with permeabilization buffer made up of blocking buffer with 0.1% TX-100. Cells were incubated in for 30 min at room temperature, rinsed in PBS and treated with secondary antibody (ALEXA FLUOR® 488-labeled goat-anti-mouse IgG) for 2 hours at room temperature. Cells were rinsed again in PBS and treated with DAPI nuclear stain for 5 min at room temperature in the dark. Cells were rinsed again in PBS and mounted for fluorescence microscopy.

In another test the test system is OV-90 cells. The test is described as follows: Cell viability assay with secondary antibody-drug conjugate (2° ADC), OV-90. The test is classed as cell-based. As to conditions: with 2° ADC Fab αMFc-CL-MMAF. On the procedure:
Cell viability assays are performed to screen anti-STn antibodies of the present invention in the presence and absence of secondary antibody-drug conjugates (2° ADCs). The purpose of the screen is to identify the ability of each anti-STn antibody to inhibit cell growth. Antibodies with potent cell growth inhibition are used to design direct antibody-drug conjugates (ADCs). Using such secondary antibody-drug conjugates (2° ADCs) in cell-based cytotoxic assays can quickly pre-screen many ADC candidates against tumor cells. Based on the assay, a naked antibody candidate is directly added to cells in the presence of a 2° ADC. Internalization of the mAb/2° ADC complex into cells that express a high density of the targeted antigen can achieve a dose-dependent drug release within the cells, causing a cytotoxic effect to kill the cells (e.g., tumor cells), while cells expressing a low density of the targeted antigen are not affected (e.g., normal cells).
To perform cell viability assays, cell lines described in the present application (MDA-MB-231 parental, MDA-MB-231-STn+, and OV-90) are prepared and cultured for the assays. The cell culture is optimized for cell density by plating different densities of cells (e.g., 2,000, 4,000 and 7,500 per well) on a 96-well plate and observing the cell growth for 96 hours. The plating condition in which cells reach around 90% confluence at the end of the 96 hours is identified and the optimal cell number is then used in the final viability assay.
Duplicate or triplicate cell plates for each cell line are used for testing each antibody candidate.
For cell viability assays, data points are collected for each antibody candidate with duplicates for each data point. […]
Cell viabilities are measured by Cell-Titer Glo luminescence based assays.
Three anti-STn monoclonal antibodies (anti-STn antibodies S3F, 7G9 and 2D4) and an anti-EGFR monoclonal antibody LA22 were tested for internalization. […] Cell viability was then measured using CellTitreGlo Luminescent Cell Viability Assay (Promega, Madison, Wis.).

B1: 2D4: anti-STn mouse monoclonal, IgG2b κ, from mouse #4407; VH SEQ ID NO: 10, VL SEQ ID NO: 11 (antibody, V domains shown)
VH: QVQLQESGPGLVAPSQSLSITCTVSGFSLISYGVNWVRQPPGKGLEWLGVIWGDGSTNYQSALISRLIISKDNSKSQVFLKLNSLQTDDTATYYCTKGFAYWGQGTLVTVSA
VL: QIVLTQSPAIMSASPGEKVTMTCSASSSVSYMHWFQQKSGTSPKRWIYDTSKLASGVPARFSGSGSGTSYSLTISSMEAEDAATYYCQQWSSNLLTFGAGTKLELK
Turning to B1, in test [1], the “hybridoma screening: specificity for STn” value is “specific for STn”. Also, the “Net cell counts of cells showing positive internalization” value in the test with MDA-MD-231 STn cells (15 min at 37° C.) came out at 1340; in the test with MDA-MD-231 STn cells (30 min at 37° C.), 413; with MDA-MD-231 STn cells (60 min at 37° C.), 533; in the test with MDA-MD-231 STn cells (4 hr at 37° C.), 325; in the test with MDA-MD-231 STn cells (4 hr, no perm), 536. Further, the “level of internalization (comparison of antibodies)” value with MDA-MD-231 STn cells (microscopy) was “greatest levels of internalization”. Further, the “activity in OV-90 cells” value with OV-90 cells is on record as “lack of effect”.

B2: 7G9: anti-STn mouse monoclonal, IgG2b κ, from mouse #4407; VH SEQ ID NO: 12, VL SEQ ID NO: 9 (antibody, V domains shown)
VH: B1 VH with Q5K, S17N, I30T, Q60H, D72E, D88N, A100V
VL: B1 VL with F35Y, Y48F
On to B2, for which, in test [1], the “hybridoma screening: specificity for STn” value is listed as “specific for STn”. In addition, the “Net cell counts of cells showing positive internalization” value stood at 458 in the test with MDA-MD-231 STn cells (15 min at 37° C.); 154 in the test on MDA-MD-231 STn cells (30 min at 37° C.); 126 in the test with MDA-MD-231 STn cells (60 min at 37° C.); 61 with MDA-MD-231 STn cells (4 hr at 37° C.); 145 in the test with MDA-MD-231 STn cells (4 hr, no perm). Further, in the test with OV-90 cells, the “activity in OV-90 cells” value is listed as “lack of effect”.
